Reference: patent US11866760B2, “Microorganisms for the production of insect pheromones and related compounds” (Provivi, Inc., priority 2017, dated 2024)

Tests used:
ALE1p (=LCA1p) = biological target: T1, ALE1p (=LCA1p) (Saccharomyces cerevisiae, UniProt Q08548); details: Chen Q et al. 2007; cited from earlier work
T1 sequence (Q08548 1-619): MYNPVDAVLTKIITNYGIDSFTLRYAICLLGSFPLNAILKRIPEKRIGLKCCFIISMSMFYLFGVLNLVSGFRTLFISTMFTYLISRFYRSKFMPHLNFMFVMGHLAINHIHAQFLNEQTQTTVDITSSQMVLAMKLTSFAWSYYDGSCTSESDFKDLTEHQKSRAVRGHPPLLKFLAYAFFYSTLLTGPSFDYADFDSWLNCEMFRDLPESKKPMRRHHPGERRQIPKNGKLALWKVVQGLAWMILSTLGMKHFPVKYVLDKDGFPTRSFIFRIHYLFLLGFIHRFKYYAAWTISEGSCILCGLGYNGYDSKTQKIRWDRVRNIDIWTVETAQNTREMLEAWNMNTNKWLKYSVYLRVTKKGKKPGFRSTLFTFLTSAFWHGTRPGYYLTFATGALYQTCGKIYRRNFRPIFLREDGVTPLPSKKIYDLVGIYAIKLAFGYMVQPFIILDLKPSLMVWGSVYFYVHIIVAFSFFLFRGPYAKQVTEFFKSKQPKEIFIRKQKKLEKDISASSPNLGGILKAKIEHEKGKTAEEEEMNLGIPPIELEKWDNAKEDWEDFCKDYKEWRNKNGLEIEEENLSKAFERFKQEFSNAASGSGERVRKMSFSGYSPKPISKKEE

methyl palmitate [1] = assay: HaFAR mutant library cultivation in shake flasks; type: cell-based, Yarrowia lipolytica; details: shake flask experiments, 10 g/L methyl palmitate
Experimental: In a first step a shake flask experiment of the respective strains was performed to analyze fatty alcohol and fatty acid formation over time. The best performing clone of the strains expressing HaFAR, HaFAR S195A and HaFAR S418A were tested. 10 mL YPD was inoculated from patches of individual clones and incubated for 24 h at 28° C., 250 rpm in a 125 mL shake flask. Next, 25 mL YPD were inoculated with 5 mL starter culture in 500 mL shake flasks and incubated for 24 h at 28° C., 250 rpm. The cells were harvested and the pellets were resuspended in 15 mL S2 media and 10 g/L methyl palmitate was added. OD600 was measured and subsequently methyl palmitate was added. […] 4×0.5 mL samples were taken every 24 h and stored at −20° C. until analyzed according to a previously established standard protocol (FIG. 47 and FIG. 48). To improve sampling and reduce the standard deviation, samples were transferred directly into GC crimp vials and stored until analyzed.
Thus, sampling was reduced to 20 h. In previous 24 well plate bioconversion experiments the measured biomass was ˜2× higher compared to the shake flask experiment. […] The cells were harvested and the pellets were resuspended in 10 mL S2 media and 10 g/L, OD600 was measured and subsequently methyl palmitate was added. […] 4×0.5 mL samples were taken and analyzed according to a previously established standard protocol (FIG. 49). […]

methyl palmitate [2] = assay: HaFAR mutant library cultivation in 24 well plates in Y. lipolytica SPV603; type: cell-based, Yarrowia lipolytica; details: second FAR copy in SPV603, 24 well plates
Experimental: Four individual clones of positive integrants were tested. Cultivation was performed in 24 well plates. Briefly, 2 mL YPD was inoculated from patches of individual clones and incubated for 24 h at 28° C., 1000 rpm. After 24 h OD600 was measured and the cells were centrifuged at 1000 rpm (Table 23). The cell pellets were resuspended in 1 mL S2 media and 10 g/L methyl palmitate was added. The cells were incubated for 18 h at 28° C., 1000 rpm. Cultivations were stored at −20° C. until analyzed. Extraction and analysis was performed according to previously established standard protocols using GC-FID.
In a first round four individual isolate from each transformation was tested. Cultivation was performed in 24 well plates. 2 mL YPD was inoculated from patches of individual clones and incubated for 24 h at 28° C., 1000 rpm. After 24 h OD600 was measured and the cells were centrifuged at 1000 rpm. The cell pellets were resuspended in 1 mL S2 media and 10 g/L methyl palmitate was added. The cells were incubated for 24 h at 28° C., 1000 rpm. Cultivations were stored at −20° C. until analyzed. Next, four clones of the best performing positive integrant were tested. Cultivation was performed in 24 well plates. 2 mL YPD was inoculated from patches of individual clones and incubated for ˜28 h at 28° C., 1000 rpm. After 28 h OD600 was measured and the cells were centrifuged at 1000 rpm. The cell pellets were resuspended in 1 mL S2 media and 10 g/L methyl palmitate was added. The cells were incubated for 18 h at 28° C., 1000 rpm. Cultivations were stored at −20° C. until analyzed.
Cell pellets were resuspended with 500 μL 5% NaOH (in methanol) then heated for 1 hour at 85° C. Samples were cooled down and then acidified by adding 400 μL 5N HCl. Next, 500 μL chloroform (containing 1 mM C17:0 heptadecanoate internal standard) were added to samples. Samples were mixed vigorously then spun down for 2 minutes at 13,000 RPM using a table top centrifuge. 450 μL chloroform were transferred to a new vial then evaporated at 85° C. for ˜15 minutes. Samples were then resuspended in 50 μL BSTFA (and were now ready for GC analysis). After analysis of the fatty alcohols samples were diluted ˜1:10 and rerun on the GC to improve peak separation of the fatty acid peaks.
All quantifications were based on the concentration of the internal standard. The concentration of the internal standard C17ME is 1 mM. The final concentration of fatty alcohols as well as fatty acids were calculated based on the effective carbon number compared to the internal standard.

[Zn+2] [Zn2+]
inhibitory concentration (ALE1p (=LCA1p)): above 0.1 mM

B1: HaFAR (S418A) (protein)
chain: MVVLTSKETKPSVAEFYAGKSVFITGGTGFLGKVFIEKLLYSCPDIENIYMLIREKKGLSVSERIKQFLDDPLFTRLKDKRPADLEKIVLIPGDITAPDLGINSENEKMLIEKVSVIIHSAATVKFNEPLPTAWKINVEGTRMMLALSRRMKRIEVFIHISTAYTNTNREVVDEILYPAPADIDQVHQYVKDGISEEDTEKILNGRPNTYTFTKALTEHLVAENQAYVPTIIVRPSVVAAIKDEPLKGWLGNWFGATGLTVFTAKGLNRVIYGHSSYIVDLIPVDYVANLVIAAGAKSSKSTELKVYNCCSSSCNPVTIGTLMSMFADDAIKQKSYAMPLPGWYIFTKYKWLVLLLTFLFQVIPAYVTDLSRHLIGKSPRYIKLQSLVNQTRSSIDFFTNHSWVMKADRVRELYASLAPADKYLFPCDPTDINWTHYIQDYCWGVRHFLEKKSYE
Z11-16OH titer (methyl palmitate [1]): ~80 mg/L
Z11-16OH titers compared to the HaFAR double copy strain (methyl palmitate [2]): distinct increase of Z11-16OH titers

B2: HaFAR (S195A) (protein)
chain: MVVLTSKETKPSVAEFYAGKSVFITGGTGFLGKVFIEKLLYSCPDIENIYMLIREKKGLSVSERIKQFLDDPLFTRLKDKRPADLEKIVLIPGDITAPDLGINSENEKMLIEKVSVIIHSAATVKFNEPLPTAWKINVEGTRMMLALSRRMKRIEVFIHISTAYTNTNREVVDEILYPAPADIDQVHQYVKDGIAEEDTEKILNGRPNTYTFTKALTEHLVAENQAYVPTIIVRPSVVAAIKDEPLKGWLGNWFGATGLTVFTAKGLNRVIYGHSSYIVDLIPVDYVANLVIAAGAKSSKSTELKVYNCCSSSCNPVTIGTLMSMFADDAIKQKSYAMPLPGWYIFTKYKWLVLLLTFLFQVIPAYVTDLSRHLIGKSPRYIKLQSLVNQTRSSIDFFTNHSWVMKADRVRELYASLSPADKYLFPCDPTDINWTHYIQDYCWGVRHFLEKKSYE
Z11-16OH titer (methyl palmitate [1]): ~120 mg/L
Z11-16OH titers compared to the HaFAR double copy strain (methyl palmitate [2]): distinct increase of Z11-16OH titers
